Laboratory results as given in PMC9813255 (2023).

Legend:
GST-Htt-110Q = target: T1, GST-Htt-110Q; assay: SPR
T1 chain: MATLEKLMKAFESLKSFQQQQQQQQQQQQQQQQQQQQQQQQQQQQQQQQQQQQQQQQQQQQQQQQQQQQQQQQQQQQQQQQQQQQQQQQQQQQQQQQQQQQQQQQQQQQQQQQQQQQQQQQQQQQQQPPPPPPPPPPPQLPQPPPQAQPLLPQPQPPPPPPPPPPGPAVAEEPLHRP

GST-Atxn1-86Q = target: T2, GST-Atxn1-86Q (UniProt P54253 1-815); assay: SPR
T2 chain: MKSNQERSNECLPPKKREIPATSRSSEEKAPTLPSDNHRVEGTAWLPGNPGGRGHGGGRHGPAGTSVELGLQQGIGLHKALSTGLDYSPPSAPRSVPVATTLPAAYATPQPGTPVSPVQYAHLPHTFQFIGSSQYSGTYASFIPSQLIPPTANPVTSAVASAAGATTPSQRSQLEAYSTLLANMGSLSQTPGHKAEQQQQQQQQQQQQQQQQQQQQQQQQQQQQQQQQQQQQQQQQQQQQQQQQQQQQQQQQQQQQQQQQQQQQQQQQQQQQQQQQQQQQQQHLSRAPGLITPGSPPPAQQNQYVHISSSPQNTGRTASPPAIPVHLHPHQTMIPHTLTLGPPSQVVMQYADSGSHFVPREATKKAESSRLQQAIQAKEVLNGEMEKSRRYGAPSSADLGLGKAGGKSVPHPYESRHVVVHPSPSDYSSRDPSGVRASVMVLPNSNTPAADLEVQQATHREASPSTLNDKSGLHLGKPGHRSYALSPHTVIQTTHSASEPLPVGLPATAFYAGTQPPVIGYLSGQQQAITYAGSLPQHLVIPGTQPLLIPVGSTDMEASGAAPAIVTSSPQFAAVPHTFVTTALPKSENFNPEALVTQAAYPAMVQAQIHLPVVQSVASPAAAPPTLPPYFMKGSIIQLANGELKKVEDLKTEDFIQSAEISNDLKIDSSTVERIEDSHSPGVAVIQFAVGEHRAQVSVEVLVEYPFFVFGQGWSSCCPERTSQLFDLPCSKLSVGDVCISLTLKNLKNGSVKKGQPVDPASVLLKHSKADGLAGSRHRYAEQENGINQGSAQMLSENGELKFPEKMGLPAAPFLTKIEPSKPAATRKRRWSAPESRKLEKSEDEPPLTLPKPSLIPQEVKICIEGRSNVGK

GST-Atxn1-33Q = target: T3, GST-Atxn1-33Q (UniProt P54253 1-815); assay: SPR
T3 chain: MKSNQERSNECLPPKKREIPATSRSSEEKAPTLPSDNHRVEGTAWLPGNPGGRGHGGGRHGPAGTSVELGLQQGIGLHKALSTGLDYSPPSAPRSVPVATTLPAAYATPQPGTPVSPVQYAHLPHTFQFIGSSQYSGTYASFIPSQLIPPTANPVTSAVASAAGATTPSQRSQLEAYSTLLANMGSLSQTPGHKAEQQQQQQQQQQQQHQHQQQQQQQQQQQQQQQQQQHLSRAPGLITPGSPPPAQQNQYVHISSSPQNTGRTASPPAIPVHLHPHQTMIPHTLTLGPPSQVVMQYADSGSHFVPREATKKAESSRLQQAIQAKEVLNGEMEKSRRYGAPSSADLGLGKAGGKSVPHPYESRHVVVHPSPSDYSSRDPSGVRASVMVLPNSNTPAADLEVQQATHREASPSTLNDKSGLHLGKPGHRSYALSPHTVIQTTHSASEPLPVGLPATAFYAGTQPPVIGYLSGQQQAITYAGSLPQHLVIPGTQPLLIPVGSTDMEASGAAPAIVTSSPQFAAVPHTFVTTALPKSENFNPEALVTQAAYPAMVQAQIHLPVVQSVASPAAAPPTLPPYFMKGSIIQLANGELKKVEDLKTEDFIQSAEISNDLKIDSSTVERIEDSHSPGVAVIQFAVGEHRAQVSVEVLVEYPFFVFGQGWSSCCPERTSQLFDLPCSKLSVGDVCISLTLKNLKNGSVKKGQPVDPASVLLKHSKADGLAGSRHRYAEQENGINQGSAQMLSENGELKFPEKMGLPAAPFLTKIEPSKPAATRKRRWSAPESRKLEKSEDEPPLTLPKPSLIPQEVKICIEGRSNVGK

[1] = target: human nucleolin (His-tag fusion protein) (human, UniProt P19338 1-710); assay: SPR; PQBP5 analyte, nucleolin immobilized
[2] = target: T4, human fibrillarin (His-tag fusion protein) (human, UniProt P22087 1-321); assay: SPR; PQBP5 analyte, fibrillarin immobilized
T4 chain: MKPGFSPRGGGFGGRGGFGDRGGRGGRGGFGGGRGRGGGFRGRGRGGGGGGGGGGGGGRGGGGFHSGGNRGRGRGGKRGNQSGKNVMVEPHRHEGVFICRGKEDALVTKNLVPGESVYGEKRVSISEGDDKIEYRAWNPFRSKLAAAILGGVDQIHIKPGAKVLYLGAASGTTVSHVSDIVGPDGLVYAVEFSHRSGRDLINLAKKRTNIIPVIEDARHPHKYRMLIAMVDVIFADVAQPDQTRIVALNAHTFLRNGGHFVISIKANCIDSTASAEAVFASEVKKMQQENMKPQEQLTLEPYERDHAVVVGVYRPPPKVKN

Chain of human nucleolin (His-tag fusion protein) (P19338 whole entry, the tested form may be a part): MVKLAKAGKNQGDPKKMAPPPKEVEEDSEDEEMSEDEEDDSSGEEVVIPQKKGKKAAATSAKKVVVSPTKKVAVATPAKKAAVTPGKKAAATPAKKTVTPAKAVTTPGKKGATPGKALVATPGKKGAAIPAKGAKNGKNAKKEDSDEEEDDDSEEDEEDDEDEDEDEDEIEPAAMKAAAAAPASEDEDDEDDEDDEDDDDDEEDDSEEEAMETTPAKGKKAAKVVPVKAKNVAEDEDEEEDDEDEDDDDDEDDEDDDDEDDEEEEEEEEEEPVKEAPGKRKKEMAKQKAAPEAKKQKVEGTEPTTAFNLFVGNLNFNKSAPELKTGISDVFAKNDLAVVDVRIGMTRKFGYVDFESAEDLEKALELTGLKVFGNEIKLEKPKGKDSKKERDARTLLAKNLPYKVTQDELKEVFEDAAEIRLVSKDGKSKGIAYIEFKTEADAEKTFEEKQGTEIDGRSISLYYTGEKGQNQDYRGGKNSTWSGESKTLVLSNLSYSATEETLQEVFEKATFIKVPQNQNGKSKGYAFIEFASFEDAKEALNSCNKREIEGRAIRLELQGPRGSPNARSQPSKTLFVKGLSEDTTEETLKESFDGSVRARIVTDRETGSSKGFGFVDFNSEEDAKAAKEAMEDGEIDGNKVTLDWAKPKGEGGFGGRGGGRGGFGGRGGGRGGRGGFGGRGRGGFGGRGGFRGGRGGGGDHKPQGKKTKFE

| Binder | Kd (GST-Htt-110Q) [nM] | Kd (GST-Atxn1-86Q) [nM] | Kd (GST-Atxn1-33Q) [nM] | Kd [1] [nM] | Kd [2] [nM] |
| --- | --- | --- | --- | --- | --- |
| PQBP5-Δ5 (protein, Delta number assigned from the order of the constructs in the methods (fifth: 1-481, lacking NUC153); tag omitted. Exon 1 with the polyQ tract (18-38, 21Q) repeated to 110Q, as in the assayed protein name. The plasmid is called 103Q, so the repeat count is ambiguous. GST omitted.) MQVSSLNEVKIYSLSCGKSLPEWLSDRKKRALQKKDVDVRRRIELIQDFEMPTVCTTIKVSKDGQYILATGTYKPRVRCYDTYQLSLKFERCLDSEVVTFEILSDDYSKIVFLHNDRYIEFHSQSGFYYKTRIPKFGRDFSYHYPSCDLYFVGASSEVYRLNLEQGRYLNPLQTDAAENNVCDINSVHGLFATGTIEGRVECWDPRTRNRVGLLDCALNSVTADSEINSLPTISALKFNGALTMAVGTTTGQVLLYDLRSDKPLLVKDHQYGLPIKSVHFQDSLDLILSADSRIVKMWNKNSGKIFTSLEPEHDLNDVCLYPNSGMLLTANETPKMGIYYIPVLGPAPRWCSFLDNLTEELEENPESTVYDDYKFVTKKDLENLGLTHLIGSPFLRAYMHGFFMDIRLYHKVKLMVNPFAYEEYRKDKIRQKIEETRAQRVQLKKLPKVNKELALKLIEEEEEKQKSTWKKKVKSLPNILT | 0.424 |  |  |  |  |
| PQBP5-Δ1 (protein, Delta number assigned from the order of the constructs in the methods; initiator Met from the primer and tag omitted.) TYQLSLKFERCLDSEVVTFEILSDDYSKIVFLHNDRYIEFHSQSGFYYKTRIPKFGRDFSYHYPSCDLYFVGASSEVYRLNLEQGRYLNPLQTDAAENNVCDINSVHGLFATGTIEGRVECWDPRTRNRVGLLDCALNSVTADSEINSLPTISALKFNGALTMAVGTTTGQVLLYDLRSDKPLLVKDHQYGLPIKSVHFQDSLDLILSADSRIVKMWNKNSGKIFTSLEPEHDLNDVCLYPNSGMLLTANETPKMGIYYIPVLGPAPRWCSFLDNLTEELEENPESTVYDDYKFVTKKDLENLGLTHLIGSPFLRAYMHGFFMDIRLYHKVKLMVNPFAYEEYRKDKIRQKIEETRAQRVQLKKLPKVNKELALKLIEEEEEKQKSTWKKKVKSLPNILTDDRFKVMFENPDFQVDEESEEFRLLNPLVSKISEKRKKKLRLLEQQELREKEEEEEPEGKPSDAESSESSDDEKAWVEEVRKQRRLLQQEEKVKRQERLKEDQQTVLKPQFYEIKAGEEFRSFKDSATKQKLMNKTLEDRLKIEAKNGTLSVSDTTVGSKQLTFTLKRSEQQKKQQEAEKLHRQERKRLRRSAGHLKSRHKRGRSFH |  | 0.294 | 0.355 |  |  |
| PQBP5-Δ1 (protein, Delta number assigned from the order of the constructs in the methods; initiator Met from the primer and tag omitted. Exon 1 with the polyQ tract (18-38, 21Q) repeated to 110Q, as in the assayed protein name. The plasmid is called 103Q, so the repeat count is ambiguous. GST omitted.) TYQLSLKFERCLDSEVVTFEILSDDYSKIVFLHNDRYIEFHSQSGFYYKTRIPKFGRDFSYHYPSCDLYFVGASSEVYRLNLEQGRYLNPLQTDAAENNVCDINSVHGLFATGTIEGRVECWDPRTRNRVGLLDCALNSVTADSEINSLPTISALKFNGALTMAVGTTTGQVLLYDLRSDKPLLVKDHQYGLPIKSVHFQDSLDLILSADSRIVKMWNKNSGKIFTSLEPEHDLNDVCLYPNSGMLLTANETPKMGIYYIPVLGPAPRWCSFLDNLTEELEENPESTVYDDYKFVTKKDLENLGLTHLIGSPFLRAYMHGFFMDIRLYHKVKLMVNPFAYEEYRKDKIRQKIEETRAQRVQLKKLPKVNKELALKLIEEEEEKQKSTWKKKVKSLPNILTDDRFKVMFENPDFQVDEESEEFRLLNPLVSKISEKRKKKLRLLEQQELREKEEEEEPEGKPSDAESSESSDDEKAWVEEVRKQRRLLQQEEKVKRQERLKEDQQTVLKPQFYEIKAGEEFRSFKDSATKQKLMNKTLEDRLKIEAKNGTLSVSDTTVGSKQLTFTLKRSEQQKKQQEAEKLHRQERKRLRRSAGHLKSRHKRGRSFH | 2.11 |  |  |  |  |
| full-length human PQBP5 (His-tag fusion protein) (natural protein) MQVSSLNEVKIYSLSCGKSLPEWLSDRKKRALQKKDVDVRRRIELIQDFEMPTVCTTIKVSKDGQYILATGTYKPRVRCYDTYQLSLKFERCLDSEVVTFEILSDDYSKIVFLHNDRYIEFHSQSGFYYKTRIPKFGRDFSYHYPSCDLYFVGASSEVYRLNLEQGRYLNPLQTDAAENNVCDINSVHGLFATGTIEGRVECWDPRTRNRVGLLDCALNSVTADSEINSLPTISALKFNGALTMAVGTTTGQVLLYDLRSDKPLLVKDHQYGLPIKSVHFQDSLDLILSADSRIVKMWNKNSGKIFTSLEPEHDLNDVCLYPNSGMLLTANETPKMGIYYIPVLGPAPRWCSFLDNLTEELEENPESTVYDDYKFVTKKDLENLGLTHLIGSPFLRAYMHGFFMDIRLYHKVKLMVNPFAYEEYRKDKIRQKIEETRAQRVQLKKLPKVNKELALKLIEEEEEKQKSTWKKKVKSLPNILTDDRFKVMFENPDFQVDEESEEFRLLNPLVSKISEKRKKKLRLLEQQELREKEEEEEPEGKPSDAESSESSDDEKAWVEEVRKQRRLLQQEEKVKRQERLKEDQQTVLKPQFYEIKAGEEFRSFKDSATKQKLMNKTLEDRLKIEAKNGTLSVSDTTVGSKQLTFTLKRSEQQKKQQEAEKLHRQERKRLRRSAGHLKSRHKRGRSFH |  | 0.179 | 0.342 | 0.447 | 745 |
| full-length human PQBP5 (His-tag fusion protein) (natural protein, Exon 1 with the polyQ tract (18-38, 21Q) repeated to 110Q, as in the assayed protein name. The plasmid is called 103Q, so the repeat count is ambiguous. GST omitted.) MQVSSLNEVKIYSLSCGKSLPEWLSDRKKRALQKKDVDVRRRIELIQDFEMPTVCTTIKVSKDGQYILATGTYKPRVRCYDTYQLSLKFERCLDSEVVTFEILSDDYSKIVFLHNDRYIEFHSQSGFYYKTRIPKFGRDFSYHYPSCDLYFVGASSEVYRLNLEQGRYLNPLQTDAAENNVCDINSVHGLFATGTIEGRVECWDPRTRNRVGLLDCALNSVTADSEINSLPTISALKFNGALTMAVGTTTGQVLLYDLRSDKPLLVKDHQYGLPIKSVHFQDSLDLILSADSRIVKMWNKNSGKIFTSLEPEHDLNDVCLYPNSGMLLTANETPKMGIYYIPVLGPAPRWCSFLDNLTEELEENPESTVYDDYKFVTKKDLENLGLTHLIGSPFLRAYMHGFFMDIRLYHKVKLMVNPFAYEEYRKDKIRQKIEETRAQRVQLKKLPKVNKELALKLIEEEEEKQKSTWKKKVKSLPNILTDDRFKVMFENPDFQVDEESEEFRLLNPLVSKISEKRKKKLRLLEQQELREKEEEEEPEGKPSDAESSESSDDEKAWVEEVRKQRRLLQQEEKVKRQERLKEDQQTVLKPQFYEIKAGEEFRSFKDSATKQKLMNKTLEDRLKIEAKNGTLSVSDTTVGSKQLTFTLKRSEQQKKQQEAEKLHRQERKRLRRSAGHLKSRHKRGRSFH | 0.00362 |  |  |  |  |
